Measurements: the supplement of paper PMC9170038

Tested on: K4 kissing-loop RNA reporter
Test: apparent KD of K4 kissing-loop reporter; higher = weaker reporter binding
Conditions: Eterna round: R107
Experimental: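 RNA-MaP round R107: designed RNA switches with theophylline, tryptophan, arginine or FMN aptamers are transcribed on-chip within common flanks. They are titrated with a labelled K4 kissing-loop RNA reporter in RNA-MaP buffer (100 mM Tris pH 7.5, 80 mM KCl, 4 mM MgCl2), without ligand or with the indicated ligand. Median apparent KD per design.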

[1] = input ligand: theophylline 20 uM
[2] = input ligand: tryptophan 2.4 mM
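Further: bound reporter read as fluorescence of individual clusters on recovered sequencing chips by microscopy, with normalized cluster intensities fitted with a binding model.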

| Sequence | apparent KD of K4 kissing-loop reporter (input ligand: FMN 200 uM) [µM] | apparent KD of K4 kissing-loop reporter (input ligand: arginine 13.2 mM) [µM] | apparent KD of K4 kissing-loop reporter (input ligand: none) [µM] | apparent KD of K4 kissing-loop reporter [1] [µM] | apparent KD of K4 kissing-loop reporter [2] [µM] |
| --- | --- | --- | --- | --- | --- |
| UAUAUAGUGACGGCCGCCACUAUAUUAAUGUUUAGGUUAGAGUGAUGUUUUGAUUAAUAUUUUUAUAGGACCGGGUUAUAUGUUA [xerrmullin] | 0.563 | 0.314 | 0.511 | 0.739 | 0.428 |
| UAUCGAGUGAUGUUCGAUGUAGUGCAUUCAGAGGAUAUAGGAUGGGCUAGAAGGCUGAAAAGUGCUUCGAGUGAUGUUCGAAGAU [Exclusion FMN A GF 5] | 0.0638 | 0.0492 | 0.0803 | 0.0576 | 0.0653 |
| UAUGAAGGUGGAGGAUAUUGAUUGAACCUUGGUCAGGAGUGAUGUUCCGGGAAGCCUUGGGUUCAUCGAGAAGGCCAAGGAUAGU [Extra 2] | 0.139 | 0.257 | 0.254 | 0.28 | 0.238 |
| UAUUAAGUGACGGCCGCCACUAUGGUGAUUUAUUUGUUUGAGUGAUGUUUUGAUGUUUGAUUUUGUAGGACCGGGUUAUGUGUUA [ttttcmullin] | 0.969 | 0.641 | 0.735 | 0.752 | 0.597 |
| UAUUGAUUGUCAGGAUAUCGUAAACGAGUGAUGUUCGUAAAUCGACGAUAGUCGAUAUGAUCUGAACGAGAAGGGACAUUAUUUA [JR_SSFMNB_Sub010] | 0.365 | 0.311 | 0.388 | 0.336 | 0.305 |
| UCAGUGAUGUUGAACAAAUAAUGGUUCCUAAAGGAUAUCCACAGAUGGAGAAGGUUAGUAGCGGCUCGCACAUCGUAGGACAAAU [theeternabot_exclusion_KL_FMN_A_1] | 0.767 | 0.648 | 0.734 | 0.602 | 0.526 |
| UCCACGCUUAGAGGAUAUCGGAUUAGAGUGAUGUUCUAAAGAAGCCCAGUGAUGUUGGAUGGUAUACGAGAAGGCUGUGGCGUGU [Same State FMN B GF 4] | 0.254 | 0.446 | 0.386 | 0.371 | 0.369 |
| UCCACGCUUAGAGGAUAUCGGAUUAGAGUGAUGUUCUAAAGACGCCCAGUGAUGUUGGAUGGUAUACGAGAAGGCUGUGGCGUGU [Same State FMN B GF5] | 0.219 | 0.539 | 0.551 | 0.622 | 0.41 |
| UCCUAGGCUCGAAAGAGCCUAGGAUGGACUCAGGAUAUCCGGAAACGGAGAAGGGAGUCACUAGUGAUGUUAGGGACUCCCUAAC | 0.302 | 0.0977 | 0.11 | 0.123 | 0.109 |
| UCCUAGGCUCGAAAGAGCCUAGGAUUUACUCAGGAUAUCCGGAAACGGAGAAGGGAGUGACUAGUGAUGUUAGGGACUCCCUAAA | 0.144 | 0.0808 | 0.0955 | 0.108 | 0.0906 |
| UCCUGCAAUCGACCACGAAAGUGGUUCGAUACCAGAGUCGAAAGACUCCCUUGGCAGCGAGUGAUGUUCGAGCAGGUAAAAUAAA | 0.438 | 0.436 | 0.567 | 0.467 | 0.472 |
| UCCUGCAAUCUGCCACGAAAGUGGGUUGAUACCAGAGUCGAAAGACUCCCUUGGCAGCGAGUGAUGUUCGUUGCAGGUGUUUAAA [MatMod 11 - Jieux - Exclusion - Theophylline A] | 0.197 | 0.172 | 0.186 | 0.217 | 0.174 |
| UCCUUUGUUGCCAGUGAUGUUGGACAGGAAGGAGCGGGCAUAAGCCCAGGUAGGUCGCCUGUCAACUUUCUUAUAGCCCUAAGGU [KL-XArg-A16] | 0.343 | 0.329 | 0.372 | 0.323 | 0.337 |
| UCGCGUAAUGGAAGGAGCGGUGCCAGUGAUGUUGGAUACUGCGUGUAUUAGGUCGGAGCGCACCAGGUAGGUCGCCAUUUGGUGG [Tigedies] | 0.328 | 0.276 | 0.236 | 0.271 | 0.369 |
| UCUCAGGAGUGAUGUUCCGUAGGUGGAAGGAAGGAUAUCUAAUGGCAGAGAAGGUCCAUCCUUGCUCGUAUCAGUGCCGGGAAGC [theeternabot_exclusion_KL_FMN_A_13] | 0.282 | 0.251 | 0.232 | 0.304 | 0.168 |
| UCUCCAGUGAUGUUGGAGACGGAUGAGGAAGGAGCGGGCACGUGCCCAGGUAGGUCGCCUCGAAAGCCCUGUAGCAUCGCGAAAC [Disoribe] | 0.281 | 0.188 | 0.203 | 0.193 | 0.149 |
| UCUGGAGCAUAUGAUACCAGCAGUGAGAGAGAGGAAGUAUAGUGAUGUUAUAUGAGAGAAUGCCCUUGGCAGCGUGUGUAGUGGG [SSTheophylB.M] | 0.155 | 0.146 | 0.119 | 0.0945 | 0.107 |
| UCUGGUAUAUCUGAUACCAGAGUAUAGUAUCAAUUGAAUAUGGAGUGAUGUUCCAUACAACUCCCUUGGCAGCAGAUCUUCCUCU [Same State Theophylline B GF 23] | 0.145 | 0.206 | 0.188 | 0.193 | 0.124 |
| UGACACUCAACGGCCGCCACUACCGUCGCCGAAUUCCGCAGUGAUGUUGCGAUCCUCCGAUUGUCUAGGACCGGGUUGUUUGGGC [theeternabot_exclusion_KL_Trp_B_43] | 0.181 | 0.209 | 0.223 | 0.216 | 0.162 |
| UGACAUUGCUCAGAUACCAGACACGAGGAUCACCCGUGUGCCAAAACGUACUAAAUAAGUGUCCCUUGGCAGCUGAGCAAUGUCU [TheoBX 13] | 0.0781 | 0.0198 | 0.0301 | 0.148 | 0.0478 |
| UGACAUUGCUCAGAUACCAGACAUGAGCAUCAGCCAUGUACCAAGAAAACGUACAUAAAUGUCCCUUGGCAGCUGAGCAAUGUCU [TheoBX 10] | 0.0835 | 0.0398 | 0.0599 | 0.089 | 0.0638 |

| Sequence | apparent KD of K4 kissing-loop reporter (input ligand: FMN 200 uM) [µM] | apparent KD of K4 kissing-loop reporter (input ligand: arginine 13.2 mM) [µM] | apparent KD of K4 kissing-loop reporter (input ligand: none) [µM] | apparent KD of K4 kissing-loop reporter [1] [µM] | apparent KD of K4 kissing-loop reporter [2] [µM] |
| --- | --- | --- | --- | --- | --- |
| UGACAUUGCUCAGAUACCAGACAUGAGCAUCAGCCAUGUGCCAACGUACAAAUAAUAAAUGUCCCUUGGCAGCUGAGCAAUGUCU [TheoBX 15] | 0.0674 | 0.0258 | 0.0482 | 0.0646 | 0.0599 |
| UGACAUUGCUCAGAUACCAGACUUGAGGAUCACCCAAGUGCCAAACGUACAAUAAUAAAAGUCCCUUGGCAGCUGAGCAAUGUCU [TheoBX 14] | 0.201 | 0.0134 | 0.0972 | 0.112 | 0.0621 |
| UGACUACAAAAGGAAUAAUCCUAGUGAUGUUAGGAUAUGCUGAUAAGCAGAAGGAACGGAGAUCGAAGGAUCUCAUAUGUAGUCU [whbob_Ex_FMNA__2th193] | 0.17 | 0.0921 | 0.0869 | 0.117 | 0.089 |
| UGACUGGACUGAAGGAGCGCGAACUCCUAGUGAUGUUAGGAAAUACGAGACAAAGUCUCGACGCAGGUAGGUCGCAGUCUAGUCU [ArgBS 15 #SwitchBubble #StaticStem] | 0.11 | 0.0866 | 0.107 | 0.104 | 0.098 |
| UGACUGGACUGAAGGAGCGCGCGAGACAAAGUCUCGAACUGCUAGUGAUGUUAGCAAAUAACGCAGGUAGGUCGCAGUCUAGUCU [ArgBS 11 #SwitchBubble #StaticStem #DoubleMagnet] | 0.135 | 0.1 | 0.137 | 0.0923 | 0.124 |
| UGACUGGACUGAAGGAGCGCUAAACUCCUAGUGAUGUUAGGGAAACAAGACAAAGUCUUGAGGCAGGUAGGUCGCAGUCUAGUCU [FiskerMod 3 - Jieux - Same State - Arginine B] | 0.287 | 0.199 | 0.264 | 0.272 | 0.225 |
| UGACUGGACUGAAGGAGCGGGCGAGACAAAGUCUCGAACUGCUAGUGAUGUUAGCAAAUAACCCAGGUAGGUCGCAGUCUAGUCU | 0.122 | 0.1 | 0.12 | 0.109 | 0.11 |
| UGACUGGAUGGAAGGAGCGCUAAACUCCUAGUGAUGUUAGGGACAUGAGGCAAAGCCUUGAAGCAGGUAGGUCGCCAUCUAGUCU [FiskerMod 27 - Jieux - Same State - Arginine B] | 0.233 | 0.133 | 0.208 | 0.176 | 0.167 |
| UGACUGGAUUGAAGGAGCGCUAAACUCCUAGUGAUGUUAGGGACACGAGACAAAGUCUCGAGGCAGGUAGGUCGCAAUCUAGUCU [FiskerMod 6 - Jieux - Same State - Arginine B] | 0.309 | 0.225 | 0.247 | 0.296 | 0.249 |
| UGAGGAGAGGGAAGGAGCGUGAAAGAGAAAGAAUAUAGUGAUGUUAUAUAGAAGAAAGAAUCACAGGUAGGUCGCCCGGAGGAGG [SSArgB.B] | 0.278 | 0.742 | 0.479 | 0.669 | 0.284 |
| UGAUACCAGACGGCCGCCACUACACCAGUCAAAGACUGGAUGUGAUGUUUGACCAGUGAUGUUGGUAGGACCGGGUCUGGUAUCU [TrypBX 5 #Palindromic #SwitchBubble #StaticStem] | 0.5 | 0.394 | 0.45 | 0.494 | 0.326 |
| UGAUACCAGACGGCCGCCACUAGGGCUAGCAAAGCUAGCAAGUGAUGUUUGAGGAGUGAUGUUCCUAGGACCGGGUCUGGUAUCU [TrypBX 1 #Palindromic #SwitchBubble #StaticStem] | 0.0605 | 0.0363 | 0.0522 | 0.0465 | 0.0259 |
| UGAUACCAGACGGCCGCCACUCCCGCAGGUCAAAGACCUGCGAAGAAGGUUCUUCAGUGAUGUUGGAGGACCGGGUCUGGUAUCU [FiskerMod 22 - Jieux - Exclusion - Tryptophan B] | 0.217 | 0.168 | 0.207 | 0.213 | 0.369 |
| UGAUACCAGACGGCCGCCACUCCCGUAAGUCAAAGACUUACGAAGAGGGUUUUUCAGUGAUGUUGGAGGACCGGGUCUGGUAUCU [FiskerMod 17 - Jieux - Exclusion - Tryptophan B] | 0.516 | 0.42 | 0.545 | 0.506 | 0.824 |
| UGAUACCAGACUGAUACCAGCCAGUGAUGUUGGCUAAGCCAAAUAGGAGUCAAAGACUCCGGCCCUUGGCAGCAGUCUGGUAUCU [TheoBX 5 #SwitchBubble #StaticStem] | 0.127 | 0.117 | 0.122 | 0.124 | 0.127 |
| UGAUAGGACAGAAGGAGCGGAAGUGAUGUUUCCAAAUGGAAUAAGGUGUCAAAGACACCCUUCCAGGUAGGUCGCUGUCCUAUCU [ArgBX 15 #Palindromic #SwitchBubble #StaticStem] | 0.147 | 0.175 | 0.14 | 0.161 | 0.128 |
| UGAUAGGACAGAAGGAGCGGAGCUGGUCAAAGACCAGCAAUAACGUUGAAAGGAGUGAUGUUCCAGGUAGGUCGCUGUCCUAUCU [ArgBX 26 #SwitchBubble #StaticStem] | 0.121 | 0.13 | 0.12 | 0.163 | 0.0937 |
| UGAUAGGACAGAAGGAGCGGGAGUGAUGUUCCCAAAGGAAGGUCUAGCAAAGCUGGACCCUCCCAGGUAGGUCGCUGUCCUAUCU [ArgBX 4 #SwitchBubble #StaticStem] | 0.129 | 0.123 | 0.124 | 0.155 | 0.118 |
| UGAUAGGACAGAAGGAGCGGGAGUGAUGUUCCCAAUAGGAGGUCUAGCAAAGCUGGACCCUCCCAGGUAGGUCGCUGUCCUAUCU [ArgBX 3 #SwitchBubble #StaticStem] | 0.102 | 0.115 | 0.0961 | 0.115 | 0.108 |
| UGAUAGGACAGAAGGAGCGGUAGUGAUGUUACCAAAAGGGUAAGGUGUCAAAAGACACCCUACCAGGUAGGUCGCUGUCCUAUCU | 0.11 | 0.096 | 0.104 | 0.0843 | 0.0828 |
| UGAUAGGACAGAAGGAGCGGUAGUGAUGUUACCAAAAGUAUAAGGUGUCAAAAGACACCCUGCCAGGUAGGUCGCUGUCCUAUCU | 0.157 | 0.21 | 0.178 | 0.198 | 0.152 |
